Laboratory results: US20250003966

Test system: substrate protein (Seq Id no. 1) (URSCREENSARS-COV-2)

## trypsin
  cleavage bands on 15% SDS-PAGE (Sypro Ruby stain): We could clearly see the cleavage bands of expected molecular weight after gel staining
